Kd, koff and kon data for two molecules are collected here from CN112521508A (BEIJING GUANGWEI BIOTECHNOLOGY CO LTD, dated 2021).

For this assay, the target named is T1, 人CD20蛋白 (human CD20) (human, UniProt P11836 1-297, limits assumed).
T1 construct: its title names human CD20; also called 抗原
T1 sequence (looked up): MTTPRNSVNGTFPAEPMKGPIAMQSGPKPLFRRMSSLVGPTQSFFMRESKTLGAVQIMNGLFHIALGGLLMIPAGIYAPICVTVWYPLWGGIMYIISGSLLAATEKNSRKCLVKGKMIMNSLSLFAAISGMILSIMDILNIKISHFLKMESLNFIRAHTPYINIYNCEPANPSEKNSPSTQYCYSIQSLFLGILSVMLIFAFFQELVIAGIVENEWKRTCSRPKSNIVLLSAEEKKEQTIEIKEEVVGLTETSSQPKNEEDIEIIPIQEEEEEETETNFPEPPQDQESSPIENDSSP
Put plainly: SPR (CM5 chip), antibody captured by anti-human capture antibody, antigen as analyte.

What is called Kd is the equilibrium constant for the complex coming apart. A high value points to lower affinity. Usually koff stands for the rate constant with which the complex falls apart. Read a high koff as fast dissociation. One may read the kon as a measure of how fast the partners come together. High values mean fast association, low ones slow association.

B1: hG7B2-IgG1 (antibody, V domains shown)
VH: QVQLVQSGGEVKKPGASVKVSCKTSGYRFTSGKNAVWVRQAPGQGLEWMGGIATGKFNLSVDLQGRLTLTTDTSTSTAYMELGSLRPDDTAVYYCTRDIRLYAGDYWGQGTLVTVSS
VL: DIVLTQPASVSGSPGQSVTISCSAIDGNCFNKVSWYQQHPGKAPKLMIYDASKRCTGIPERFSGSNSGNTATLTISRVEAGDEADYYCQAASKDAPITTFGRGTKLTVL
B1 showed a Kd of 0.215 nM, an off-rate (koff) of 5.31e-05 s⁻¹ and a kon of 246000 M⁻¹ s⁻¹.

B2: Rituximab (antibody, V domains shown)
VH: QVQLQQPGAELVKPGASVKMSCKASGYTFTSYNMHWVKQTPGRGLEWIGAIYPGNGDTSYNQKFKGKATLTADKSSSTAYMQLSSLTSEDSAVYYCARSTYYGGDWYFNVWGAGTTVTVSA
VL: QIVLSQSPAILSASPGEKVTMTCRASSSVSYIHWFQQKPGSSPKPWIYATSNLASGVPVRFSGSGSGTSYSLTISRVEAEDAATYYCQQWTSNPPTFGGGTKLEIK
Consider B2, for which the dissociation constant (Kd) amounted to 5.46 nM, the koff was found to be 0.000345 s⁻¹ and the kon was 63100 M⁻¹ s⁻¹.
